T1: full-length human Siglec15 with C-terminal flag and Myc tags on HEK293 cells (human, UniProt Q6ZMC9 20-328)
T1 construct: whole, on cells; also called Siglec15/HEK293; HEK293-Siglec 15; not shown: C-terminal flag and Myc tags from pCMV6-Entry vector
T1 sequence (looked up): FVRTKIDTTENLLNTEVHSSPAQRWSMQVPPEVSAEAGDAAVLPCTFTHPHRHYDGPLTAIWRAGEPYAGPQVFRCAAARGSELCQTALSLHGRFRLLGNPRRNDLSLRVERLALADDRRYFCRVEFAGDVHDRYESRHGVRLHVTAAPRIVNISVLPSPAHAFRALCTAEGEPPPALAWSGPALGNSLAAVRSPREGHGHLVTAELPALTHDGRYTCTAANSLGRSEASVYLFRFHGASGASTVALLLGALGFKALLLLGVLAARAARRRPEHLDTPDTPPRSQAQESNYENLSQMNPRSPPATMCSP

T2: human Siglec 15-HIS tagged recombinant protein (human, UniProt Q6ZMC9 20-263)
T2 construct: Recombinant soluble protein; also called rhSiglec15 His; human Siglec15-HIS tagged protein; not shown: HIS tag
T2 sequence (looked up): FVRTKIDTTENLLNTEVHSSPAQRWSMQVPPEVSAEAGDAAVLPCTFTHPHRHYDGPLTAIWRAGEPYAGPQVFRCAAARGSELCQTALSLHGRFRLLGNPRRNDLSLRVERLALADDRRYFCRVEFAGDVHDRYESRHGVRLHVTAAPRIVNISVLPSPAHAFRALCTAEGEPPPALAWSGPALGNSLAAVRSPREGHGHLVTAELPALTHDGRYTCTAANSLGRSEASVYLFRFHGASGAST

T3: rcynoSiglec15 His (cyno, UniProt A0A2K5UY47 20-262)
T3 construct: not shown: His tag
T3 sequence: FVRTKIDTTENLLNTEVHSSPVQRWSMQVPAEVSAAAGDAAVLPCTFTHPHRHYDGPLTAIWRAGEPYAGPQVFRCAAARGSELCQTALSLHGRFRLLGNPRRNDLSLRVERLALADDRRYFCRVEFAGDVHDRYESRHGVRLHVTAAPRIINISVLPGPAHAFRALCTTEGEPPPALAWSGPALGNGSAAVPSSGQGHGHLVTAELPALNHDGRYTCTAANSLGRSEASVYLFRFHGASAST

T4: rmouseSiglec15 His (mouse, UniProt A7E1W8 20-262)
T4 sequence: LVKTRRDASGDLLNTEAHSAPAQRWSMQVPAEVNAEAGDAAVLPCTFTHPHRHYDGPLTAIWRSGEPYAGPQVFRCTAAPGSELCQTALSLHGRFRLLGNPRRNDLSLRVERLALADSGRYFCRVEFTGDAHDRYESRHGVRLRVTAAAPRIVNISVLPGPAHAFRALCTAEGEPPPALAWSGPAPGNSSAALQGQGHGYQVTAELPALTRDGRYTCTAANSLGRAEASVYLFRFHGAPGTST

T5: human Siglec15-Fc fusion protein (human, UniProt Q6ZMC9 20-263)
T5 construct: Bought protein (Acro #SG5-H5253 is named for the selection); also called recombinant Siglec 15-Fc fusion protein (Acro #SG5-H5253); human Siglec15-Fc protein; not shown: Fc part of the bought fusion protein
T5 sequence (looked up): T2 sequence (looked up)

B1: 2020EP032-B03 scFv (scFv, V domains shown)
VH: QVQLQQWGAGLLKPSETLSLTCAVYGGSFSGYYWSWIRQPPGKGLEWIGEINHSGSTNYNPSLKSRVTISVDTSKNQFSLKLSSVTAADTAVYYCARGPLRKYYDFWSGSRNYYYYGMDVWGQGTTVTVSS
VL: QPVLTQDPAVSVALGQTVRITCQGDSLRSNYASWYQLKPGQAPVLVIYDKNNRPSGIPDRFSGSNSGNTASLTIAGAQAEDEADYYCTSRDSSGTVFGGGTKLTVL
notes: Tested as a single-chain scFv made in E. coli with a C-terminal flag and 6x His tag
B2: 2020EP032-A12 scFv (scFv, V domains shown)
VH: QMQLVQSGGGVVQPGRSLRLSCAASGFTFSSYGMHWVRQAPGKGLEWVAVISDDGSNKYYADSVKGRFTISRDNSKNTLYLQMNSLRAEDTAVYYCAKKDVATILFDNWGQGTLVTVSS
VL: VIWMTQSPSTLSASVGDRVTITCRASQSITRWLAWYQQKPGKAPKLLIYKTSDLDGGVPSRFSGSESGAEFTLTISSLQPDDVATYFCQHYNTRSWTFGQGTKVELK
notes: as for B1
B3: 2020EP032-H11 scFv (scFv, V domains shown)
VH: EVQLVESGGGLVKPGGSLRLSCAASGFTFSSYSMNWVRQAPGKGLEWVSSISSSSSYIYYADSVKGRFTISRDNAKNSLYLQMNSLRAEDTAVYYCARDYRGYSGQNYYGMDVWGQGTTVTVSS
VL: QSALTQPPSVSAAPRQKVTISCSGSSSNIGNNDVSWYQQLPGTVPKLLIYDNNKRPSGIPDRFSGSKSGTSASLGITGLQTGDEADYYCGVWDSSLSGYVFGTGTKVTVL
notes: as for B1
B4: 2019EP47-A10 scFv (scFv, V domains shown)
VH: QMQLVQSGGGVVQPGRSLRLSCAASGFTFSSYGMHWVRQAPGKGLEWVAVISYDGSNKYYADSVKDRFTISRDNSKNTLYLQMNSLRAEDTAVYYCAKDIVGDSGSYPIYYYYGMDVWGQGTTVTVSS
VL: SQSALTQPHSVSESPGKTVTISCTRSSGSIASNYVQWYQQRPGSAPSTVIYEDNQRPSGVPDRFSGSVDISSNSASLTISGLQTEDEADYYCQSYDNDNMVFGGGTKLTVL
notes: as for B1
B5: 2020EP032-C09 scFv (scFv, V domains shown)
VH: QVQLVESGGGLVKPGGSLRLSCAASGFSFNNAWMSWVRQAPGKGLEWVGRIKSKTDDATTEYAAPVEGRFTISRDDSKNMLYLQMDSLKTEDTAVYYCTTDLRWEELPMYWGQGTLVTVSS
VL: VIWMTQSPSSLSASVGDRVTITCRASQGIRNDLGWYQQKPGKAPKVLIYAASSLQSGVPSRFSGSGSGTDFTLTISSLQPEDFATYYCLQDYNYPQTFGQGTKVGIKR
notes: as for B1
B6: 2019EP47-A02 IgG (antibody, V domains shown)
VH: EVQLVQSGGGVVQPGRSLRLSCAASGFTFSSYAMHWVRQAPGKGLEWVAVISYDGSNKYYADSVKGRFTISRDNSKNTLYLQMNSLRAEDTAVYYCARSRYSSSLRRYYGMDVWGQGTTVTVSS
VL: AIQLTQSPSSLSASVGDRVTITCQATHDIANYLNWYQQKPGKAPKLLIYAASNLETGVPSRFSGSGSGTDFTFAISSLQPEDIAVYYCQQYDNLPLTFGGGTKVEIK
notes: IgG form expressed in ExpiHEK293-F cells; detected with anti-hFc
B7: 2019EP47-A10 IgG (antibody, V domains shown)
VH: B4 VH
VL: B4 VL
notes: as for B6

What follows are binders tested against T1, full-length human Siglec15 with … (assay: FACS on Siglec15/HEK293 cells, scFv, anti-His detection).
Experimental: […] Cells were spun down at 1200 rpm for 5 minutes at 4° C. to remove primary antibodies. Cells were then washed once with 200 uL of full medium per well. Samples were detected with premixed anti-His Biotin Streptavidin Alexa fluor 647 by adding 100 uL of diluted secondary antibody and incubated at 4° C. for 30 minutes in the dark. Samples were spun down at 1200 rpm for 5 minutes at 4° C. and washed twice with 200 uL of 1×PBS per well. Samples were then reconstituted in 200 uL of 1×PBS and read on Attune NxT cytometer. Analysis was performed using Attune NxT software plotting the overlaying the histogram of anti-Siglec15 scFvs binding onto both negative and target cell lines.

EC50 [nM]	Binder
1.22	B1
0.86	B2
10.6	B3
112	B4
0.65	B5

These binders were tested against T1, full-length human Siglec15 with … (assay: FACS on Siglec15/HEK293 cells, IgG, anti-hFc Alexa fluor 647).

EC50 [nM]	Binder
0.35	B6

These binders were tested against T2, human Siglec 15-HIS tagged recombinant … (assay: ELISA; His-tagged Siglec15 coated, IgG titrated, anti-hFc HRP).
Experimental: (§1) An ELISA assay was developed to determine the EC50 of anti-Siglec15 IgG antibodies. Briefly, a 384 well plate was immobilized with human Siglec 15-HIS tagged recombinant protein at a final concentration of 2 ug/mL in 1×PBS in total volume of 25 uL per well. The plate was incubated overnight at 4° C. followed by blocking with 80 uL of superblock per well for 1 hour. Titration of purified anti-Siglec15 IgG was performed, starting at 200 nM 2-fold serial dilution, then 25 uL was added to the human Siglec15 immobilized wells and incubated for 1 hour with shaking. The Siglec15 binding was detected by adding 25 uL of anti-hFc HRP diluted at 1:5000 in 1×PBST. In between each step, the plate was washed 3 times with 1×PBST in a plate washer. The plate was then developed with 20 ul of TMB substrate for 5 mins and stopped by adding 20 ul of 2N sulfuric acid. The plate was read at OD450 nm Biotek plate reader and then plotted in Prism 8.1 software. Similar binding experiments were done for mouse Siglec15 and cyno Siglec15 to check the cross activity of the IgG antibodies to those two species.

EC50 [nM]	Binder
0.119	B7
0.0289	B6

These binders were tested against T3, rcynoSiglec15 His in the same assay as above.
Experimental: as §1

EC50 [nM]	Binder
0.171	B7

These binders were tested against T4, rmouseSiglec15 His in the same assay as above.
Experimental: as §1

EC50 [nM]	Binder
0.109	B7

What follows are binders tested against T5, human Siglec15-Fc fusion protein (assay: ELISA; Siglec15-Fc captured by anti-hFc, scFv titrated, anti-Flag HRP).
Experimental: An ELISA assay was developed to determine the EC50 of anti-Siglec15 antibodies. Briefly, a 384 well plate was immobilized with anti-human Fc antibody at final concentration of 2 ug/mL in 1×PBS in total volume of 25 uL per well. The plate was incubated overnight at 4° C. followed by blocking with 80 uL of superblock per well for 1 hour. Human Siglec 15-Fc was captured through immobilized anti-hFc antibody. Purified anti-Siglec 15 scFvs were 2-fold serial titrated from 200 nM. 25 uL was added to human Siglec15 immobilized wells and incubated for 1 hour with shaking. The Siglec15 binding was detected by adding 25 uL of anti-Flag HRP diluted at 1:5000 in 1×PBST. In between each step, the plate was washed 3 times with 1×PBST in a plate washer. The plate was then developed with 20 uL of TMB substrate for 5 mins and stopped by adding 20 uL of 2 N sulfuric acid. The plate was read at OD450 nm Biotek plate reader and then plotted in Prism 8.1 software.

EC50 [nM]	Binder
1.78	B1
0.544	B2
0.567	B3
2.5	B4
6.07	B5

Each binder was assayed against T5, human Siglec15-Fc fusion protein (assay: SPR Biacore T200; Siglec15-Fc captured on Protein A chip, scFv as analyte).
Experimental: Kinetic analysis of anti-Siglec15 scFvs were assessed by SPR technology with Biacore T200. The assay was run with Biacore T200 control software version 2.0. Protein A sensor chip was used to capture Fc fusion protein in the assay. For each cycle, 1 ug/mL of human Siglec15-Fc protein was captured for 60 seconds at flow rate of 10 ul/min on flow cell 2 in 1× HBSP buffer on Protein A sensor chip. 2-fold serial diluted HIS tag purified anti-Siglec15 scFv was injected onto both reference flow cell 1 and Siglec 15-Fc captured flow cell 2 for 150 seconds at flow rate of 30 ul/min followed by wash for 300 seconds. The flow cells were then regenerated with Glycine pH 2 buffer (GE) for 30 seconds at flow rate of 30 ul/mins. 8 concentration points from 300-0 nM was assayed per anti-Siglec15 scFv in a 96 well plate. The kinetics of scFvs binding to Siglec 15 protein was analyzed with Biacore T200 evaluation software version 3.0. The specific binding response unit was derived from subtraction of binding to reference flow cell 1 from Siglec15 captured flow cell 2.

Kd [nM]	koff [s⁻¹]	kon [M⁻¹ s⁻¹]	Binder
2.11	0.000282	134000	B1
2.26	0.000294	130000	B2
0.557	0.000316	567000	B3
3.32	6.02e-05	18200	B4
25.1	0.00169	67600	B5

Each binder was assayed against T2, human Siglec 15-HIS tagged recombinant … (assay: SPR Biacore T200; IgG captured on Protein A chip, Siglec15-HIS as analyte).
Experimental: Kinetic analysis of anti-Siglec15 IgG was assessed by SPR technology with Biacore T200. The assay was run with Biacore T200 control software version 2.0. For each cycle, 1 ug/mL of anti-Siglec15 IgG was captured for 60 seconds at flow rate of 10 ul/min on flow cell 2 in 1× HBSP buffer on Protein A sensor chip. 2-fold serial human Siglec15-HIS tagged protein was injected onto both reference flow cell 1 and anti-Siglec15 IgG captured flow cell 2 for 150 seconds at flow rate of 30 ul/mins followed by wash for 300 seconds. The flow cells were then regenerated with Glycine pH2 for 60 seconds at flow rate of 30 ul/mins. 8 concentration points from 100-0 nM were assayed per anti-Siglec15 IgG in a 96 well plate. The kinetics of Anti-Siglec15 IgG binding to Siglec 15 protein was analyzed with Biacore T200 evaluation software version 3.0. The specific binding response unit was derived from subtraction of binding to reference flow cell 1 from antibody captured flow cell 2.

Kd [nM]	koff [s⁻¹]	Binder
3.8	0.000368	B7
2.4	0.000311	B6

Reference: patent US20240336683A1 (published 2024)
